This note sets out measurements from article PMC10229872.

This assay addresses Programmed cell death-1 (human (endogenous in PBMCs)) (UniProt Q15116).
UniProt Q15116, sequence (Q15116 25-288): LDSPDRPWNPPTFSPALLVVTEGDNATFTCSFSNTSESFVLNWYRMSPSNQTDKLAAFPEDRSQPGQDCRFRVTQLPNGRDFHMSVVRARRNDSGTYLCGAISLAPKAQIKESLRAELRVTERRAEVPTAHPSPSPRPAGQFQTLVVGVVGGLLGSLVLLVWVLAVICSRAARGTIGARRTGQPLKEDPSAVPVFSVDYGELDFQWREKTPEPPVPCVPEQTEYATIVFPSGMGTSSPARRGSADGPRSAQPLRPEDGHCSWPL

Consider “soluble monomeric human PD-L1 (from UniProt Q9NZQ7 19-229) (domain or fragment)”, for which the reduction of intracellular IFN-gamma in PBMCs stimulated with anti-CD3/CD28 antibodies (FACS) was 55.3%, the reduction of intracellular IL-2 in PBMCs stimulated with anti-CD3/CD28 antibodies (FACS) came out at 32.5%, the reduction of intracellular IL-10 in PBMCs stimulated with anti-CD3/CD28 antibodies (FACS) came out at 48.5% and the reduction of intracellular TNF-alpha in PBMCs stimulated with anti-CD3/CD28 antibodies (FACS) was 47.3%.

For the substance “soluble recombinant Fc fusion protein of hPD-L1 (from UniProt Q9NZQ7 19-229)”, the increase of intracellular IL-2 in PBMCs stimulated with anti-CD3/CD28 antibodies (FACS) came out at 14.2% and the reduction of intracellular IFN-gamma in PBMCs stimulated with anti-CD3/CD28 antibodies (FACS) came to 15.1%.
